Results published in the supplement of paper PMC10201428.
± gives the standard deviation of the averaged measurements.

B1: library; a variant is named by its letters at N, in order (parent)
chain: AATGTTGTTGATGCAACCATAAAGTGATATTTAATAATTATTTATAATCAGCAACTTAACCACAAAACAACCATATATTGATATNTCACAAAACAACCATAANTTGATATTTTTGTGAATCGAGTATTTCAGCAAAACTACTGCAGTAAGAA

Legend:
[1] = variants of: B1; assay: relative integration efficiency (T-LR orientation) vs wild-type transposon end (log2 (normalized fold change)); transposon end mutated: left end; higher = more efficient transposition; conditions: with VchCAST RNA-guided transposition machinery (E. coli BL21(DE3) host, lacZ target)
Outline: (§1)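 A T7-driven effector plasmid encoding a CRISPR array, tniQ-cas8-cas7-cas6 and tnsA-tnsB-tnsC was co-transformed into E. coli BL21(DE3) together with a pUC57 mini-transposon donor holding barcoded pools of 1549 left-end or 1849 right-end variants. Transformants were plated with 0.1 mM IPTG at 37°C for 18 h. Illumina sequencing of PCR-amplified input plasmids and genomic integration junctions gave barcode abundances, and relative integration efficiency is their output/input fold change, normalised to reference barcodes and log-transformed.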

[2] = variants of: B1; assay: relative integration efficiency (T-RL orientation) vs wild-type transposon end (log2 (normalized fold change)); transposon end mutated: left end; higher = more efficient transposition; conditions: with VchCAST RNA-guided transposition machinery (E. coli BL21(DE3) host, lacZ target)
Outline: as §1

CG G51C C52G
relative integration efficiency (log2) [1]: -0.162 ± 0.74
relative integration efficiency (log2) [2]: -0.107 ± 0.11

CG G24C T25A
relative integration efficiency (log2) [1]: -0.543 ± 0.54
relative integration efficiency (log2) [2]: -0.605 ± 0.37

CG C97G C98G A99T T100A
relative integration efficiency (log2) [1]: -0.482 ± 0.85
relative integration efficiency (log2) [2]: -1.36 ± 0.79

CG C89A A90C A91C A92C
relative integration efficiency (log2) [1]: -0.143 ± 0.65
relative integration efficiency (log2) [2]: -0.537 ± 0.37

CG C60G C61G
relative integration efficiency (log2) [1]: 0.337 ± 0.57
relative integration efficiency (log2) [2]: -0.185 ± 0.23

CG T8A T9A G10C A11T
relative integration efficiency (log2) [1]: < -10
relative integration efficiency (log2) [2]: -6.573 ± 0.021

CG T12A G13A T31C A77C T86G
relative integration efficiency (log2) [1]: -0.319 ± 0.56
relative integration efficiency (log2) [2]: -0.196 ± 0.058

CG G51C C52G A53T A54T
relative integration efficiency (log2) [1]: -0.796 ± 0.93
relative integration efficiency (log2) [2]: -0.34 ± 0.37

CG C89G A90T A91T A92T
relative integration efficiency (log2) [1]: -0.0713 ± 0.9
relative integration efficiency (log2) [2]: -0.00767 ± 0.14

CG C97G
relative integration efficiency (log2) [1]: -0.468 ± 0.14
relative integration efficiency (log2) [2]: -0.455 ± 0.23

CG C97A
relative integration efficiency (log2) [1]: -0.467 ± 1.2
relative integration efficiency (log2) [2]: -0.235 ± 0.37

CG C97T
relative integration efficiency (log2) [1]: -0.391 ± 0.74
relative integration efficiency (log2) [2]: -0.324 ± 0.13

CG C52G A53T A54T C55G
relative integration efficiency (log2) [1]: 0.133 ± 0.24
relative integration efficiency (log2) [2]: 0.0283 ± 0.2

CG C68A A69C A70C C71A
relative integration efficiency (log2) [1]: -1.37 ± 0.95
relative integration efficiency (log2) [2]: -1.67 ± 0.63

CG T12G G13T C14A A15C
relative integration efficiency (log2) [1]: -0.59 ± 0.54
relative integration efficiency (log2) [2]: -0.224 ± 0.3

CG G24T T25G G26T A27C
relative integration efficiency (log2) [1]: -2.96 ± 1.7
relative integration efficiency (log2) [2]: -2.31 ± 0.84

CG T5A T6A
relative integration efficiency (log2) [1]: < -10
relative integration efficiency (log2) [2]: -6.46 ± 0.12

CG G26T A27C
relative integration efficiency (log2) [1]: -0.945 ± 0.26
relative integration efficiency (log2) [2]: -1.68 ± 0.7

CG T20A
relative integration efficiency (log2) [1]: -0.647 ± 0.083
relative integration efficiency (log2) [2]: -0.343 ± 0.17

CG C89G
relative integration efficiency (log2) [1]: 0.0739 ± 0.015
relative integration efficiency (log2) [2]: -0.315 ± 0.029

CG C89A
relative integration efficiency (log2) [1]: 0.447 ± 0.3
relative integration efficiency (log2) [2]: 0.031 ± 0.013

CG C89T
relative integration efficiency (log2) [1]: 0.203 ± 0.062
relative integration efficiency (log2) [2]: -0.158 ± 0.031

CG C98T
relative integration efficiency (log2) [1]: -0.0503 ± 0.61
relative integration efficiency (log2) [2]: -0.178 ± 0.14

CG C98A
relative integration efficiency (log2) [1]: -0.338 ± 1.2
relative integration efficiency (log2) [2]: -0.0969 ± 0.46

CG C98G
relative integration efficiency (log2) [1]: -0.135 ± 0.48
relative integration efficiency (log2) [2]: -0.464 ± 0.23

CG T5A
relative integration efficiency (log2) [1]: -0.149 ± 0.06
relative integration efficiency (log2) [2]: -0.22 ± 0.057

CG T5C
relative integration efficiency (log2) [1]: -0.291 ± 0.23
relative integration efficiency (log2) [2]: -0.319 ± 0.008

CG T5G
relative integration efficiency (log2) [1]: 0.0272 ± 0.098
relative integration efficiency (log2) [2]: 0.0254 ± 0.14

CG T12G G13T
relative integration efficiency (log2) [1]: -0.641 ± 0.4
relative integration efficiency (log2) [2]: -0.29 ± 0.15

CG G106T A107C
relative integration efficiency (log2) [1]: -1.19 ± 0.39
relative integration efficiency (log2) [2]: -1.42 ± 0.84

CG T12A G13A T30A T31C A77C T86G
relative integration efficiency (log2) [1]: -1.07 ± 0.047
relative integration efficiency (log2) [2]: -0.538 ± 0.15

CG G4A
relative integration efficiency (log2) [1]: -0.235 ± 0.11
relative integration efficiency (log2) [2]: -0.0961 ± 0.035

CG G4T
relative integration efficiency (log2) [1]: 0.222 ± 0.16
relative integration efficiency (log2) [2]: -0.172 ± 0.075

CG G4C
relative integration efficiency (log2) [1]: 0.0545 ± 0.11
relative integration efficiency (log2) [2]: -0.131 ± 0.036

CG C63G A64T A65T A66T
relative integration efficiency (log2) [1]: 0.34 ± 0.24
relative integration efficiency (log2) [2]: 0.217 ± 0.0048

CG G13C C14G A15T A16T
relative integration efficiency (log2) [1]: -1.69 ± 1.2
relative integration efficiency (log2) [2]: -1.03 ± 0.47

CG G117A
relative integration efficiency (log2) [1]: -0.315 ± 0.5
relative integration efficiency (log2) [2]: -0.123 ± 0.016

CG G117T
relative integration efficiency (log2) [1]: -0.0744 ± 0.017
relative integration efficiency (log2) [2]: -0.0764 ± 0.036

CG G117C
relative integration efficiency (log2) [1]: -0.761 ± 0.33
relative integration efficiency (log2) [2]: -0.41 ± 0.12

CG C97A C98A A99C T100G
relative integration efficiency (log2) [1]: -1.52 ± 0.82
relative integration efficiency (log2) [2]: -2.58 ± 1

CG G26C
relative integration efficiency (log2) [1]: -1.96 ± 1.7
relative integration efficiency (log2) [2]: -1.36 ± 0.65

CG G26A
relative integration efficiency (log2) [1]: -0.184 ± 0.65
relative integration efficiency (log2) [2]: -0.427 ± 0.47

CG G26T
relative integration efficiency (log2) [1]: -0.577 ± 1.1
relative integration efficiency (log2) [2]: -0.329 ± 0.41

CG G117T A118C A119C T120G
relative integration efficiency (log2) [1]: 0.0571 ± 0.28
relative integration efficiency (log2) [2]: 0.0586 ± 0.085

CG T5G T6G G7T T8G
relative integration efficiency (log2) [1]: < -10
relative integration efficiency (log2) [2]: -6.89 ± 0.7

CG T5G T6G
relative integration efficiency (log2) [1]: < -10

CG G80C A81T T82A A83T
relative integration efficiency (log2) [1]: -2 ± 1.1
relative integration efficiency (log2) [2]: -1.88 ± 0.77

CG G4C T5A
relative integration efficiency (log2) [1]: 0.189 ± 0.31
relative integration efficiency (log2) [2]: 0.0402 ± 0.15

CG C97G C98G
relative integration efficiency (log2) [1]: -1.23 ± 0.91
relative integration efficiency (log2) [2]: -1.07 ± 0.5

CG G115C T116A
relative integration efficiency (log2) [1]: 0.199 ± 0.12
relative integration efficiency (log2) [2]: -0.00924 ± 0.092

CG T12A G13A T30A T31C T32A A77C
relative integration efficiency (log2) [1]: -1.73 ± 0.73
relative integration efficiency (log2) [2]: -0.517 ± 0.24

CG G80T A81C T82G A83C
relative integration efficiency (log2) [1]: -2.93 ± 1.9
relative integration efficiency (log2) [2]: -2.64 ± 0.94

CG G24C T25A G26C A27T
relative integration efficiency (log2) [1]: -2.36 ± 0.61
relative integration efficiency (log2) [2]: -2.38 ± 0.98

CG G106A
relative integration efficiency (log2) [1]: -1.25 ± 1.6
relative integration efficiency (log2) [2]: -0.788 ± 0.47

CG G106C
relative integration efficiency (log2) [1]: -2.1 ± 1.4
relative integration efficiency (log2) [2]: -1.81 ± 0.62

CG G106T
relative integration efficiency (log2) [1]: -1.19 ± 0.64
relative integration efficiency (log2) [2]: -0.797 ± 0.42

CG T6G G7T T8G T9G
relative integration efficiency (log2) [1]: < -10
relative integration efficiency (log2) [2]: -7.37 ± 0.95

CG T12A G13A T30A T31C T32A A77C T86G
relative integration efficiency (log2) [1]: -0.4 ± 0.61
relative integration efficiency (log2) [2]: -0.303 ± 0.3
